Data reported in the supplement of paper PMC7877785.
± gives the uncertainty stated by the source.

Assay: self-splicing fitness, log relative to wild type (ln ratio); higher = more splicing; Tetrahymena group I intron in knt gene, E. coli kanamycin selection, DiMSum; sequences stand for … in CUCUCU…GGAGGGAAAAGUUAUCAGGCAUGCACCUGGUAGCUAGUCUUUAAACCAAUAGAUUGCAUCGGUUUAAAAGGCAAGACCGUCAAAUUGCGGGAAAGGGGUCAACAGCCGUUCAGUACCAAGUCUCAGGGGAAACUUUGAGAUGGCCUUGCAAAGGGUAUGGUAAUAAGCUGACGGACAUGGUCCUAACCACGCAGCCAAGUCCUAAGUCAACAGAUCUUCUGUUGAUAUGGAUGCAGUUCACAGACUAAAUGUCGGUCGGGGAAGAUGUAUUCUUCUCAUAAGAUAUAGUCGGACCUCUCCUUAAUGGGAGCUAGCGGAUGAAGUGAUGCAACACUGGAGCCGCUGGGAACUAAUUUGUAUGCGAAAGUAUAUUGAUUAGUUUUGGAGUACUCGUGGUCG
Method in brief: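 The eight P1ex-region nucleotides of an intron in the knt kanamycin-resistance gene on pET-22b(+) were all randomised and the library put into E. coli BL21(DE3). Six replicate transformations were grown overnight at 37°C or 30°C on LB agar with or without 25 μg/mL kanamycin, together with 100 μg/mL carbenicillin, 50 μM IPTG and 0.2% rhamnose. Colonies were pooled and amplicon-sequenced on an Illumina HiSeq 2500. Fitness from DiMSum is the error-weighted combination of wild-type-normalised replicate fold changes, kanamycin over none.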

Sequence | self-splicing fitness (ln) (30 °C) | self-splicing fitness (ln) (37 °C)
CAGCAGCAAUAUUACGCAGG | -2.56 ± 0.12 | -0.864 ± 0.11
UCCCAGCAAUAUUACGCACA | -1 ± 0.071 | -0.318 ± 0.095
AGGCAGCAAUAUUACGGCUC | -0.958 ± 0.17 | -0.371 ± 0.19
GCGGAGCAAUAUUACGCGUC | -3.26 ± 0.18 | -3.2 ± 0.25
AUCAAGCAAUAUUACGAUGU | -0.836 ± 0.083 | -0.217 ± 0.091
GUCCAGCAAUAUUACGACUC | -0.116 ± 0.087 | -0.335 ± 0.1
CGUGAGCAAUAUUACGCUGU | -3.2 ± 0.26 | -2.43 ± 0.26
CCCCAGCAAUAUUACGUUUG | -4.17 ± 0.15 | -2.51 ± 0.12
CUAAAGCAAUAUUACGUUGU | -3.91 ± 0.12 | -3.06 ± 0.15
CCCAAGCAAUAUUACGUCCU | -3.99 ± 0.3 | -2.93 ± 0.29
AACCAGCAAUAUUACGGCAA | -0.217 ± 0.07 | -0.0314 ± 0.082
GACCAGCAAUAUUACGUGCC | -0.32 ± 0.11 | -0.217 ± 0.13
AAUGAGCAAUAUUACGAUUG | -1.99 ± 0.38 | -1.14 ± 0.26
AGCGAGCAAUAUUACGACAA | -3.33 ± 0.41 | -1.23 ± 0.3
GCCUAGCAAUAUUACGUGCG | -1.6 ± 0.075 | -0.358 ± 0.078
GACCAGCAAUAUUACGACAU | -0.634 ± 0.011 | -0.0858 ± 0.032
GUACAGCAAUAUUACGGCAC | -0.68 ± 0.11 | 0.0875 ± 0.12
ACGUAGCAAUAUUACGGCUA | -1.9 ± 0.12 | -2.26 ± 0.18
AUCAAGCAAUAUUACGUUUU | -1.6 ± 0.097 | -0.791 ± 0.12
CUCUAGCAAUAUUACGGCGC | -2.53 ± 0.28 | -3.04 ± 0.43
GGAGAGCAAUAUUACGCCCU | -2.57 ± 0.42 | 
GCCAAGCAAUAUUACGGUGU | -1.48 ± 0.049 | -0.507 ± 0.06
AGGCAGCAAUAUUACGUUGC | -4.18 ± 0.36 | -2.13 ± 0.29
AGAGAGCAAUAUUACGUCGA | -2 ± 0.32 | 
CCUGAGCAAUAUUACGGAGU | -3.26 ± 0.31 | -1.92 ± 0.18
UCUUAGCAAUAUUACGCGAC |  | -3.07 ± 0.32

Sequence | self-splicing fitness (ln) (30 °C) | self-splicing fitness (ln) (37 °C)
AUAGAGCAAUAUUACGGUCU | -1.2 ± 0.11 | -0.695 ± 0.15
UUUAAGCAAUAUUACGAUGG | -1.05 ± 0.11 | -0.525 ± 0.14
GACCAGCAAUAUUACGAUGA | -0.717 ± 0.071 | -0.509 ± 0.085
AAAAAGCAAUAUUACGCACC | -1.16 ± 0.14 | -0.602 ± 0.16
CUUCAGCAAUAUUACGAGGG | -3.48 ± 0.22 | -2.31 ± 0.22
UCCAAGCAAUAUUACGCCCG | -2.32 ± 0.26 | 
AGAAAGCAAUAUUACGUAGU | -2.98 ± 0.15 | -1.55 ± 0.1
GUGAAGCAAUAUUACGGAAU | -1.06 ± 0.18 | -0.308 ± 0.18
AUGCAGCAAUAUUACGCUUU | -2.72 ± 0.11 | -1.75 ± 0.11
AGCCAGCAAUAUUACGCCAU | -1.5 ± 0.2 | -1.89 ± 0.32
UUCUAGCAAUAUUACGGGUA | -0.701 ± 0.18 | -0.842 ± 0.2
CAUGAGCAAUAUUACGCCCU |  | -1.18 ± 0.27
ACCUAGCAAUAUUACGCAUC | -1.83 ± 0.072 | -0.436 ± 0.078
GAGCAGCAAUAUUACGAAGG |  | -2.79 ± 0.34
UAAAAGCAAUAUUACGAGCG | -0.13 ± 0.099 | -0.191 ± 0.11
UGAGAGCAAUAUUACGCACA | -2.08 ± 0.3 | -0.659 ± 0.35
UUAAAGCAAUAUUACGUCCG | -0.581 ± 0.12 | 0.242 ± 0.15
CCCUAGCAAUAUUACGGGCC | -3.25 ± 0.19 | -1.74 ± 0.27
AACGAGCAAUAUUACGACAA | -2.78 ± 0.24 | -0.872 ± 0.18
CCUGAGCAAUAUUACGGACA | -3.69 ± 0.28 | -1.64 ± 0.18
GUGAAGCAAUAUUACGAGCG | -0.702 ± 0.087 | 0.396 ± 0.12
CAUGAGCAAUAUUACGGAGG | -3 ± 0.14 | -2.16 ± 0.18
GCGUAGCAAUAUUACGGGGU | -3.95 ± 0.19 | -1.86 ± 0.12
UGUUAGCAAUAUUACGUCAC | -3.58 ± 0.33 | -2.64 ± 0.38
ACUCAGCAAUAUUACGAUUG | -2.74 ± 0.084 | -1.59 ± 0.1
CUUCAGCAAUAUUACGUUAG | -1.66 ± 0.071 | -1.25 ± 0.094

Sequence | self-splicing fitness (ln) (30 °C) | self-splicing fitness (ln) (37 °C)
UCCGAGCAAUAUUACGUGCG | -3.49 ± 0.43 | -2.63 ± 0.34
CGGGAGCAAUAUUACGAACG | -4.35 ± 0.24 | -3 ± 0.23
GAUUAGCAAUAUUACGCCAA | -3.48 ± 0.31 | -1.91 ± 0.25
ACCAAGCAAUAUUACGGGCC | -2.26 ± 0.085 | -2.07 ± 0.096
UGGAAGCAAUAUUACGUAUU | -3.06 ± 0.23 | -3.09 ± 0.33
UAAUAGCAAUAUUACGCGGA |  | -1.82 ± 0.19
GAGCAGCAAUAUUACGCAGA | -3.22 ± 0.21 | -0.954 ± 0.1
CGGGAGCAAUAUUACGUAGU |  | -1.78 ± 0.29
CCAGAGCAAUAUUACGGUAA | -2.75 ± 0.22 | -2.33 ± 0.26
AACGAGCAAUAUUACGGAGC | -3.72 ± 0.19 | -2.05 ± 0.15
CGUAAGCAAUAUUACGAACG | -3.04 ± 0.18 | -1.76 ± 0.22
UAUUAGCAAUAUUACGAUCG | -0.211 ± 0.12 | 0.607 ± 0.18
CUUGAGCAAUAUUACGUGCG | -2.22 ± 0.13 | -0.809 ± 0.14
GUGAAGCAAUAUUACGAUAG | -2.11 ± 0.19 | -0.681 ± 0.18
UAUUAGCAAUAUUACGUAGU | -2.56 ± 0.26 | -2.47 ± 0.35
GAAAAGCAAUAUUACGAUGC | -0.709 ± 0.08 | -0.503 ± 0.1
CAUAAGCAAUAUUACGGUGU | -3.84 ± 0.15 | -2.38 ± 0.14
CCAAAGCAAUAUUACGCCCG | -0.324 ± 0.15 | 0.862 ± 0.18
UAUAAGCAAUAUUACGGCGA | -0.0284 ± 0.1 | -0.427 ± 0.11
AAUCAGCAAUAUUACGCUCC | -1.54 ± 0.14 | -0.129 ± 0.11
CAACAGCAAUAUUACGAAUC | -3.47 ± 0.13 | -2.41 ± 0.14
UACAAGCAAUAUUACGCACU | -0.66 ± 0.077 | -0.133 ± 0.09
GCCUAGCAAUAUUACGAACU | -1.67 ± 0.23 | -0.772 ± 0.23
GUGCAGCAAUAUUACGUCGU | -1.01 ± 0.12 | -0.193 ± 0.14
CUGCAGCAAUAUUACGGGCG | -1.3 ± 0.059 | -0.522 ± 0.073
